Experimental findings from article PMC5299843 are described below.

The target of assay [1] is recombinant LH/CG receptor (UniProt P22888).
The target is the same in assay [2]. The source holds these as a separate data set.

Chain of UniProt P22888 (P22888 27-699): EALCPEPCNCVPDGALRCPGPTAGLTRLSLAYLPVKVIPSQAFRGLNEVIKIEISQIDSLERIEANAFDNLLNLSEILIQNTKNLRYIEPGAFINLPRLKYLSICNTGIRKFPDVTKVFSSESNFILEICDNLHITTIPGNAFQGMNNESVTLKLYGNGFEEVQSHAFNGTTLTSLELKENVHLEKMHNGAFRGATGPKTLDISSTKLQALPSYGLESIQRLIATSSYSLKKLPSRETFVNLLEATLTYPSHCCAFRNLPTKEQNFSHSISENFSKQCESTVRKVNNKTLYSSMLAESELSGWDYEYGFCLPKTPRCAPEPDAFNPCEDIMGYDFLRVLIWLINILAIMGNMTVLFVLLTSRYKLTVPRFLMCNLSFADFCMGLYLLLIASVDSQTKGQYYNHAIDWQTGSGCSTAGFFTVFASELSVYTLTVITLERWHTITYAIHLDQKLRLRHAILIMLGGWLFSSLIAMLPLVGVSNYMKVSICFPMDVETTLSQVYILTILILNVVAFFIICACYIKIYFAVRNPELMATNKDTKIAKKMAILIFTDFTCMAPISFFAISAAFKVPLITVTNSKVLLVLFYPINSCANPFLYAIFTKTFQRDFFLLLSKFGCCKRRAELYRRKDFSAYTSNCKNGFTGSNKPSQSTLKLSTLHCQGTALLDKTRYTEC

“human recombinant chorionic gonadotropin (hCG, Ovitrelle) (from UniProt P01215 25-116; P0DN86 21-165) (ligand)”: the change of FRET signal of the cAMP biosensor TEpacVV in living COS7-LHCGR cells, serial concentrations of hCG over time; concentration giving full receptor activation in assay [1] was found to be 50 pM. Further, in assay [2], the cAMP biosensor signal in COS7-LHCGR cells with 30 pM hCG after heat treatment of the hormone at 65 °C for 30 min; loss in active hormone concentration came out at 40%.
